Experimental findings from paper PMC10397247 are described below.

One test deals with T1, P4.
T1 chain: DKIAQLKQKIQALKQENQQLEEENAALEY
In words: two-hybrid library CCmax.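 Note: natural log of median RNA to DNA barcode read ratio; higher means stronger binding.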

A further test deals with T2, P4SN.
T2 chain: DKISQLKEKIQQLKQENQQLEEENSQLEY
In words: two-hybrid library CCmax.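 Note: natural log of median RNA to DNA barcode read ratio; higher means stronger binding.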 Conditions: mean of both orientations.

For a further test, the target named is T3, 4H56-bA.
T3 chain: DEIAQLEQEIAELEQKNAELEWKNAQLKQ
The test is described as follows: two-hybrid library CCNG1.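 Note: natural log of median RNA to DNA barcode read ratio; higher means stronger binding.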

The next test deals with T4, 4H2760-bA.
T4 chain: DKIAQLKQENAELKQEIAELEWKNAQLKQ
The test is described as follows: two-hybrid library CCNG1.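 Note: natural log of median RNA to DNA barcode read ratio; higher means stronger binding.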

The target in another test is T5, 4H741-bA.
T5 chain: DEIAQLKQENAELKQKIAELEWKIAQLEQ
The test is described as follows: two-hybrid library CCNG1.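 Note: natural log of median RNA to DNA barcode read ratio; higher means stronger binding.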

For the next test, the target named is T6, 4H3041-bA.
T6 chain: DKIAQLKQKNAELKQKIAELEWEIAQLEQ
In words: two-hybrid library CCNG1.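 Note: natural log of median RNA to DNA barcode read ratio; higher means stronger binding.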

The next test deals with T7, 4H2931-bA.
T7 chain: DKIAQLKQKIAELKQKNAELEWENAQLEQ
In words: two-hybrid library CCNG1.

The target in a further test is T8, 4H2438-bA.
T8 chain: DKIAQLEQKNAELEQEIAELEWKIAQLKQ
In words: two-hybrid library CCNG1.

The next test deals with T9, 4H2233-bA.
T9 chain: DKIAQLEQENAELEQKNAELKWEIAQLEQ
The test is described as follows: two-hybrid library CCNG1.

The target of another test is T10, 4H2162-bA.
T10 chain: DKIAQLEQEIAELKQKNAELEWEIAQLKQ
The test is described as follows: two-hybrid library CCNG1.

The target in the next test is T11, 4H40-bA.
T11 chain: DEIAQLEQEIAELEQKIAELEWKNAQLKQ
The test is described as follows: two-hybrid library CCNG1.

The next test concerns the target T12, 4H2585-bA.
T12 chain: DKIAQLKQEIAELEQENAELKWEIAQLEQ
In words: two-hybrid library CCNG1.

The target of another test is T13, 4H796-bA.
T13 chain: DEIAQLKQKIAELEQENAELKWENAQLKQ
The test is described as follows: two-hybrid library CCNG1.

In the next test the target is T14, 4H3297-bA.
T14 chain: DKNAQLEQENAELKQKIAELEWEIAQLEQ
The test is described as follows: two-hybrid library CCNG1.

The next test has as its target T15, 4H932-bA.
T15 chain: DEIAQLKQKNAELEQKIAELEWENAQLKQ
The test is described as follows: two-hybrid library CCNG1.

In a further test the target is T16, 4H2473-bA.
T16 chain: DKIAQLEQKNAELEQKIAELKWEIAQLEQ
The test is described as follows: two-hybrid library CCNG1.

A further test has as its target T17, 4H492-bA.
T17 chain: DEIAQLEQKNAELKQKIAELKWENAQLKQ
The test is described as follows: two-hybrid library CCNG1.

The next test deals with T18, 4H2143-bA.
T18 chain: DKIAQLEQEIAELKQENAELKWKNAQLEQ
In words: two-hybrid library CCNG1.

For the next test, the target named is T19, 4H2223-bA.
T19 chain: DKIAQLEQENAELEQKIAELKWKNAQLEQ
The test is described as follows: two-hybrid library CCNG1.

A further test concerns the target T20, 4H2444-bA.
T20 chain: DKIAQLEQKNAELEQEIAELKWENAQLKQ
The test is described as follows: two-hybrid library CCNG1.

The target of the next test is T21, 4H2518-bA.
T21 chain: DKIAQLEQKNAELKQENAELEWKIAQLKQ
The test is described as follows: two-hybrid library CCNG1.

The target of the next test is T22, 4H264-bA.
T22 chain: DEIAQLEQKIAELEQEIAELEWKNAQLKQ
The test is described as follows: two-hybrid library CCNG1.

Another test deals with T23, 4H2692-bA.
T23 chain: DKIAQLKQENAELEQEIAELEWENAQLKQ
The test is described as follows: two-hybrid library CCNG1.

The target of another test is T24, 4H2915-bA.
T24 chain: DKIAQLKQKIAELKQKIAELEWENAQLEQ
The test is described as follows: two-hybrid library CCNG1.

In another test the target is T25, 4H349-bA.
T25 chain: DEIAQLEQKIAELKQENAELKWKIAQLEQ
In words: two-hybrid library CCNG1.

Another test addresses T26, 4H883-bH.
T26 chain: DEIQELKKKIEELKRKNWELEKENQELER
In words: two-hybrid library CCNG1.

For the next test, the target named is T27, 4H3057-bA.
T27 chain: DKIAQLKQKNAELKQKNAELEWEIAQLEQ
In words: two-hybrid library CCNG1.

In another test the target is T28, 4H3364-bA.
T28 chain: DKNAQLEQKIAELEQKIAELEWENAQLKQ
In words: two-hybrid library CCNG1.

Another test deals with T29, 4H477-bA.
T29 chain: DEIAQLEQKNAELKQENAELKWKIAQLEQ
In words: two-hybrid library CCNG1.

In another test the target is T30, 4H2839-bA.
T30 chain: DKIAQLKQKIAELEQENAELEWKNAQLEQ
The test is described as follows: two-hybrid library CCNG1.

For another test, the target named is T31, P1A-bH.
T31 chain: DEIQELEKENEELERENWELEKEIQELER
The test is described as follows: two-hybrid library CCNG1.

A further test addresses T32, 4H2717-bA.
T32 chain: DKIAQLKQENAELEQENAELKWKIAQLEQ
In words: two-hybrid library CCNG1.

The target in another test is T33, O3-bA.
T33 chain: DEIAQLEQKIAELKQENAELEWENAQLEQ
In words: two-hybrid library CCNG1.

The target in the next test is T34, 4H3277-bA.
T34 chain: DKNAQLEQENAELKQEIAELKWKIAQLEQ
In words: two-hybrid library CCNG1.

Another test deals with T35, 4H2253-bA.
T35 chain: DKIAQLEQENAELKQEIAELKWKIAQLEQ
In words: two-hybrid library CCNG1.

The target of another test is T36, 4H2588-bA.
T36 chain: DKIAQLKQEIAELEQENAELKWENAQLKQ
The test is described as follows: two-hybrid library CCNG1.

For a further test, the target named is T37, 4H2859-bA.
T37 chain: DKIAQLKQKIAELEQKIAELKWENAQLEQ
The test is described as follows: two-hybrid library CCNG1.

The next test concerns the target T38, 4H319-bA.
T38 chain: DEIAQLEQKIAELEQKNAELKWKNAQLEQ
In words: two-hybrid library CCNG1.

Another test addresses T39, 4H730-bA.
T39 chain: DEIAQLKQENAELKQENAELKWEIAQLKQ
The test is described as follows: two-hybrid library CCNG1.

A further test addresses T40, 4H348-bA.
T40 chain: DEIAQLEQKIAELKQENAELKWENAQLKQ
In words: two-hybrid library CCNG1.

The next test addresses T41, 4H235-bA.
T41 chain: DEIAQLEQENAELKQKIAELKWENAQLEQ
The test is described as follows: two-hybrid library CCNG1.

In a further test the target is T42, 4H2503-bA.
T42 chain: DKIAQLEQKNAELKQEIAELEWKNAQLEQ
The test is described as follows: two-hybrid library CCNG1.

In the next test the target is T43, 4H949-bA.
T43 chain: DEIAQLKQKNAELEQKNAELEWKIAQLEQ
In words: two-hybrid library CCNG1.

A further test has as its target T44, 4H3381-bA.
T44 chain: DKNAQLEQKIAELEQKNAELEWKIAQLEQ
The test is described as follows: two-hybrid library CCNG1.

Where two headings read alike, the source gives them in different places.

B1: P3_WA (peptide)
chain: DEIQQLEEEIAQLEWKNAALKEKNAQLKA
For the molecule B1, the interaction score with P4 (mean of both orientations) turned out to be 1.5; with P4SN, 1.9.

B2: 4H2143-bA (peptide)
chain: DKIAQLEQEIAELKQENAELKWKNAQLEQ
Consider B2, for which the interaction score was -0.735 with 4H56-bA; -0.549 with 4H2760-bA; -1.07 with 4H741-bA; 0.0855 with 4H3041-bA; 0.604 in the test with 4H2931-bA; -0.866 in the test with 4H2438-bA. In addition, the interaction score is -0.508 in the test with 4H2233-bA; -0.188 in the test with 4H2162-bA; -1.53 with 4H40-bA; 0.499 with 4H2585-bA; -0.0583 with 4H796-bA; -0.562 in the test with 4H3297-bA. The interaction score was -0.976 in the test with 4H932-bA; -0.712 with 4H2473-bA; -0.554 with 4H492-bA; 0.408 with 4H2143-bA; -0.911 with 4H2223-bA; -0.654 with 4H2444-bA. Also, the interaction score with 4H2518-bA is -0.404; with 4H264-bA, -1.37; with 4H2692-bA, -0.33; with 4H2915-bA it was 0.145; in the test with 4H349-bA it was -0.729; in the test with 4H883-bH, -0.0863. The interaction score with 4H3057-bA was -0.0999; with 4H3364-bA, -0.25; with 4H477-bA, -1.41; with 4H2839-bA it was 0.951; with P1A-bH, -0.594; in the test with 4H2717-bA, 0.447. In addition, the interaction score in the test with O3-bA is 0.533; with 4H3277-bA, -0.971; with 4H2253-bA it was -0.521; with 4H2588-bA, 0.968; with 4H2859-bA, 0.213; in the test with 4H319-bA, -1.13. Also, the interaction score with 4H730-bA was -0.518; with 4H348-bA it was -2.35; with 4H235-bA it was -1.89; with 4H2503-bA, -0.661; with 4H949-bA it was -0.273; in the test with 4H3381-bA it was -0.302.

B3: P3_WRA (peptide)
chain: DEIQQLEEEIAQLEWKNAARKEKNAQLKA
In the case of B3, the figures for the interaction score with P4 and in the test with P4SN were -1.51 and -1.65, respectively.
